The results in this text go back to patent publication US12076390 (Dana-Farber, dated 2024).

The target in the assay is HA of A/Vietnam/1203/04 on pseudotyped virus (H5-VN04 pseudovirus) (influenza A virus A/Vietnam/1203/04 …). Briefly: cell-based or functional assay.

B1: 3I14 VLD94N IgG1 (antibody, V domains shown)
VH: QVQLLESGGGVVQPGRSLRLSCAASGFTFSNYGMHWVRQAPGKGLEWVAIISFDGSKKYYANSVKGRSTISRDNSKNTLSLQMNSLGPEDTALYYCAKLPSPYYFDSRFVWVAASAFHFWGQGILVTVSS
VL: NFMLTQPPSASGTPGQRVTISCSGSSSNIGGNTVHWFQQLPGTAPKLLIYTNSLRPSGVPDRFSGSKSGTSASLAISGLQSEDEADYYCAAWDNSLNGQVFGGGTKLTVL
Turning to B1, the “IC50, neutralization of H5-VN04 pseudovirus” value was 8.65 ng/mL.
